Data set [1] addresses T1, CTCF (human) (UniProt P49711).
T1 sequence: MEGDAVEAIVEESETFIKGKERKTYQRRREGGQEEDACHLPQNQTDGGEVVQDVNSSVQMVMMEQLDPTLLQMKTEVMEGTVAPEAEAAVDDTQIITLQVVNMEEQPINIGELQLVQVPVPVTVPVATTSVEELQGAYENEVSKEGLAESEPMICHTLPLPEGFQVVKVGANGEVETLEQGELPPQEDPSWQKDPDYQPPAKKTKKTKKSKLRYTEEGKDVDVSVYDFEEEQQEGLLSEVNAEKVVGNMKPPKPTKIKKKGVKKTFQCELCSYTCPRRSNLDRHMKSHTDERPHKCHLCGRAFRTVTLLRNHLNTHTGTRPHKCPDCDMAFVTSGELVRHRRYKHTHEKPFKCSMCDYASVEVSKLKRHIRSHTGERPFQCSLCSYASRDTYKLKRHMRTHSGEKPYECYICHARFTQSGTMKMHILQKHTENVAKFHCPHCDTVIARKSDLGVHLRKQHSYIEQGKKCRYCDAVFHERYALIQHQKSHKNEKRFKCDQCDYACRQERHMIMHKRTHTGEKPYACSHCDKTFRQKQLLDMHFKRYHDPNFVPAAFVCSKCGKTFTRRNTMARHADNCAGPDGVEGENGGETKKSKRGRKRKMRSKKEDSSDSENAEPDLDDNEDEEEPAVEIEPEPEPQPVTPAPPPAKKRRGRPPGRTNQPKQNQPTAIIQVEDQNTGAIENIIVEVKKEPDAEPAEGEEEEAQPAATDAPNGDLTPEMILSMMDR
The data set is described as follows: EMSA. Conditions: 10 mM Tris (pH not stated), 50 mM KCl, 5 mM MgCl2, 0.1 mM ZnSO4, 1 mM DTT, 0.1% NP-40, 50 ng/µl poly(dI-dC), 2.5% glycerol, 20 fmol probe, 30 min at 25 C. (In general: A gel shift assay detects complexes by their altered migration in electrophoresis.)

Data set [2] has as its system CTCF (human). Put plainly: EMSA. On the set-up: unit not given here. Conditions: 10 mM Tris (pH not stated), 50 mM KCl, 5 mM MgCl2, 0.1 mM ZnSO4, 1 mM DTT, 0.1% NP-40, 50 ng/µl poly(dI-dC), 2.5% glycerol, 20 fmol probe, 30 min at 25 C.

Among the data in publication PMC7124252 are binding signal, Kd and binding values, retold here.

As to “ACCTGTAACATTTCCTTTCCAGTTGCCGGATTCATTATAAGGATATGTACAGTTTGTTGCGTTGTATTGCGCCACCCGTTGGCTTAGGAAAGAACTGCCCTCGTAGGTTGGCCTACAAGGTTTGCAACTTCAGAGCCTC (double strand) [Cacna1b e37a DNA probe (139 bp)]”, the binding signal entry in the data set with CTCF (human) [1] is listed as “binds”.

With Cacna1b e37a DNA probe (139 bp), in the data set on CTCF (human) [2], the Kd is 0.0461.

For “TCAGTGCAGGGTCAAGGTCTACCTTGTATGCAACTCGAGCCGGGCATTTCTTCCCCAACCCCAGAGGTGGGGACATGTGTTTCAGCATCTCAAACATGTCATTGTAACTGATGCGCCCACTGGAAACCCGTTCCAGAGG (double strand) [Cacna1b e37b DNA probe (139 bp)]”, the binding result with CTCF (human) [1] was “no binding”.
